Results on six molecules are retold here after article PMC3716637, “Characterization of the Recombinant Exopeptidases PepX and PepN from Lactobacillus helveticus ATCC 12046 Important for Food Protein Hydrolysis” (PLoS ONE, 2013).

The term Ki denotes a measure of affinity in units of concentration, obtained from inhibition or displacement. Lower therefore signals higher affinity. Usually Km stands for the concentration of substrate that gives half-maximal velocity. As a reminder, the Vmax is the top rate of the reaction or transport when substrate is in excess.

Read-outs that look alike come from different tables or passages of the source. Residues, ends and D or L forms follow the SMILES beside them.

Data set [1] deals with T1, PepN (general aminopeptidase N) (Lactobacillus helveticus, UniProt S4THV9).
T1 construct: His-tagged recombinant full-length PepN (monomer)
T1 sequence (S4THV9 1-844): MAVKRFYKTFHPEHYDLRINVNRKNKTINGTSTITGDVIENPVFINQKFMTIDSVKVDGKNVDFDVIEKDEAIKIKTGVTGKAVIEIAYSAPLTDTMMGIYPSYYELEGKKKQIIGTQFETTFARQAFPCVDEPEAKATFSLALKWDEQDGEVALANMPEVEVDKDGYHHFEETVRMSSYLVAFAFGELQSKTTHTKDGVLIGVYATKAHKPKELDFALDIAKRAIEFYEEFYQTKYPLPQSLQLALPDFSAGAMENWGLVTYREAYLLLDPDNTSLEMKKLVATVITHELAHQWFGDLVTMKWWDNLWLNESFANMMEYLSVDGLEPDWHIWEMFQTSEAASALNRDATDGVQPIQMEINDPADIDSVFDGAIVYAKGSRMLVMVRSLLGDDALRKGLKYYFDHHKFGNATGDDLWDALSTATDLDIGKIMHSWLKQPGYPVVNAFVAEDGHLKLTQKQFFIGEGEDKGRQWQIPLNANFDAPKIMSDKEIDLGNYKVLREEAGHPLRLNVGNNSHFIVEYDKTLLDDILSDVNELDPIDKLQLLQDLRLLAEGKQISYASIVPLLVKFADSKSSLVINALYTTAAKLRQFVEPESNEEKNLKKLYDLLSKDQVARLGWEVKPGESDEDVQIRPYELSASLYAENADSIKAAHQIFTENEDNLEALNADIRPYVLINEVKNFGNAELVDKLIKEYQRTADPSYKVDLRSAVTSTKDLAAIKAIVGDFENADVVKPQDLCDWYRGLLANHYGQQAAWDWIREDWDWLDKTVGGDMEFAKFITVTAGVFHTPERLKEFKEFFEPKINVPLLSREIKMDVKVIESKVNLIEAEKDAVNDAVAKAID
The data set can be described thus: product inhibition of H-Ala-pNA hydrolysis; […] residual activity at […]. In kind it is biochemical. Conditions: read-out: % residual activity at 10 mM.

Data set [2] concerns the target T2, PepX (X-prolyl dipeptidyl aminopeptidase) (Lactobacillus helveticus, UniProt Q59485).
T2 construct: His-tagged recombinant full-length PepX (homodimer)
T2 sequence (Q59485 1-793): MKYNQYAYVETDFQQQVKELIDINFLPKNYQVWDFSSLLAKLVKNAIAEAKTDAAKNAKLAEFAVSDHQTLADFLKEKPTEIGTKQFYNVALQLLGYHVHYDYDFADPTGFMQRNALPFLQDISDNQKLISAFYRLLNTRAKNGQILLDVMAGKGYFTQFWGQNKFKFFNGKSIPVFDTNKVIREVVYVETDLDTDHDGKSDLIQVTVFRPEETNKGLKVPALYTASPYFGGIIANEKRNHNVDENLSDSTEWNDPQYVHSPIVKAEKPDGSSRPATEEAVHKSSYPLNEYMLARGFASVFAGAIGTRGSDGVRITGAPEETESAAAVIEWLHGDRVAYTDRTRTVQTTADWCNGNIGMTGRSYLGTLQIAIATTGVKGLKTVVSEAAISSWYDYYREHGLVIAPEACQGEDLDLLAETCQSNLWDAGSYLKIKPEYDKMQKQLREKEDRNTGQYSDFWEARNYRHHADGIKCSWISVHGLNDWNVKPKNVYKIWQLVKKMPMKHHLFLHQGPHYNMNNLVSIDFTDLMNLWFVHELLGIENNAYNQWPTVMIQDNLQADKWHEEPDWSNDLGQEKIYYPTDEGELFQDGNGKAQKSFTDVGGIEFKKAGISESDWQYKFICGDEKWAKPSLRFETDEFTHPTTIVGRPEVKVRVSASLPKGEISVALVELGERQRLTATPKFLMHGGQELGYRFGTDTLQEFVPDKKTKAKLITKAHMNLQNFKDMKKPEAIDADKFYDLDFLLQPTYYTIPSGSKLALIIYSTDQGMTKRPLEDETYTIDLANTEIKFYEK
The data set can be described thus: inhibition of H-Ala-Pro-pNA hydrolysis; […] residual activity at […], […] at […]. In kind it is biochemical.

In data set [3] the target is T2, PepX (X-prolyl dipeptidyl aminopeptidase). The data set can be described thus: product inhibition kinetics with H-Ala-Pro-pNA, Lineweaver-Burk. The data set is classed as biochemical.
Data set [4] deals with T1, PepN (general aminopeptidase N). Nature of the data set: product inhibition of H-Ala-pNA hydrolysis; […] residual activity at […]. In kind it is biochemical. The note with it: read-out: % residual activity at 10 mM. This is another data set of the same source.
Substrate in data set [5]: C[C@H](N)C(=O)N1CCC[C@H]1C(=O)Nc1ccc([N+](=O)[O-])cc1
Nature of the data set: enzyme kinetics, p-nitroaniline release, Hanes plot; Km. In kind it is biochemical, Lactobacillus helveticus.

Substrate in data set [6]: N=C(N)NCCC[C@H](N)C(=O)Nc1ccc([N+](=O)[O-])cc1
The data set can be described thus: purified protein. The note with it: Zn2+.

Substrate in data set [7]: CC(C)C[C@H](N)C(=O)Nc1ccc([N+](=O)[O-])cc1
The data set can be described thus: purified protein. In kind it is biochemical, Lactobacillus helveticus. The note with it: Zn2+.

Substrate in data set [8]: C[C@H](N)C(=O)Nc1ccc([N+](=O)[O-])cc1
Nature of the data set: purified protein. The data set is classed as biochemical, Lactobacillus helveticus. The note with it: Zn2+.

Substrate in data set [9]: NCCCC[C@H](N)C(=O)Nc1ccc([N+](=O)[O-])cc1
The data set can be described thus: purified protein. The data set is classed as biochemical, Lactobacillus helveticus. The note with it: Zn2+.

Substrate in data set [10]: N[C@@H](Cc1ccccc1)C(=O)Nc1ccc([N+](=O)[O-])cc1
The data set can be described thus: purified protein. In kind it is biochemical, Lactobacillus helveticus. Conditions: Zn2+.

In the case of `N=C(N)NCCC[C@H](N)C(=O)O` [L-Arg], the remaining activity at 10000 µM in [1] came to 19%.
In the case of `O=S(=O)(F)Cc1ccccc1` [PMSF], in data set [2], the “% residual activity at 10 mM” value worked out at 11.
In data set [3], `N[C@@H](Cc1ccccc1)C(=O)N1CCC[C@H]1C(=O)O` [H-L-Phe-L-Pro-OH] (H-Phe-Pro-OH) had an inhibition constant (Ki) of 30.1 mM.
For `N[C@@H](Cc1ccccc1)C(=O)O` [L-Phe], in data set [4], the remaining activity at 10000 µM worked out at 24%.

B1: PepX (X-prolyl dipeptidyl aminopeptidase) (Lactobacillus helveticus) (protein)
chain: MKYNQYAYVETDFQQQVKELIDINFLPKNYQVWDFSSLLAKLVKNAIAEAKTDAAKNAKLAEFAVSDHQTLADFLKEKPTEIGTKQFYNVALQLLGYHVHYDYDFADPTGFMQRNALPFLQDISDNQKLISAFYRLLNTRAKNGQILLDVMAGKGYFTQFWGQNKFKFFNGKSIPVFDTNKVIREVVYVETDLDTDHDGKSDLIQVTVFRPEETNKGLKVPALYTASPYFGGIIANEKRNHNVDENLSDSTEWNDPQYVHSPIVKAEKPDGSSRPATEEAVHKSSYPLNEYMLARGFASVFAGAIGTRGSDGVRITGAPEETESAAAVIEWLHGDRVAYTDRTRTVQTTADWCNGNIGMTGRSYLGTLQIAIATTGVKGLKTVVSEAAISSWYDYYREHGLVIAPEACQGEDLDLLAETCQSNLWDAGSYLKIKPEYDKMQKQLREKEDRNTGQYSDFWEARNYRHHADGIKCSWISVHGLNDWNVKPKNVYKIWQLVKKMPMKHHLFLHQGPHYNMNNLVSIDFTDLMNLWFVHELLGIENNAYNQWPTVMIQDNLQADKWHEEPDWSNDLGQEKIYYPTDEGELFQDGNGKAQKSFTDVGGIEFKKAGISESDWQYKFICGDEKWAKPSLRFETDEFTHPTTIVGRPEVKVRVSASLPKGEISVALVELGERQRLTATPKFLMHGGQELGYRFGTDTLQEFVPDKKTKAKLITKAHMNLQNFKDMKKPEAIDADKFYDLDFLLQPTYYTIPSGSKLALIIYSTDQGMTKRPLEDETYTIDLANTEIKFYEK
notes: His-tagged recombinant full-length PepX (homodimer)
Take B1: the Km in [5] came to 1300 µM.

B2: PepN (general aminopeptidase N) (Lactobacillus helveticus) (protein)
chain: MAVKRFYKTFHPEHYDLRINVNRKNKTINGTSTITGDVIENPVFINQKFMTIDSVKVDGKNVDFDVIEKDEAIKIKTGVTGKAVIEIAYSAPLTDTMMGIYPSYYELEGKKKQIIGTQFETTFARQAFPCVDEPEAKATFSLALKWDEQDGEVALANMPEVEVDKDGYHHFEETVRMSSYLVAFAFGELQSKTTHTKDGVLIGVYATKAHKPKELDFALDIAKRAIEFYEEFYQTKYPLPQSLQLALPDFSAGAMENWGLVTYREAYLLLDPDNTSLEMKKLVATVITHELAHQWFGDLVTMKWWDNLWLNESFANMMEYLSVDGLEPDWHIWEMFQTSEAASALNRDATDGVQPIQMEINDPADIDSVFDGAIVYAKGSRMLVMVRSLLGDDALRKGLKYYFDHHKFGNATGDDLWDALSTATDLDIGKIMHSWLKQPGYPVVNAFVAEDGHLKLTQKQFFIGEGEDKGRQWQIPLNANFDAPKIMSDKEIDLGNYKVLREEAGHPLRLNVGNNSHFIVEYDKTLLDDILSDVNELDPIDKLQLLQDLRLLAEGKQISYASIVPLLVKFADSKSSLVINALYTTAAKLRQFVEPESNEEKNLKKLYDLLSKDQVARLGWEVKPGESDEDVQIRPYELSASLYAENADSIKAAHQIFTENEDNLEALNADIRPYVLINEVKNFGNAELVDKLIKEYQRTADPSYKVDLRSAVTSTKDLAAIKAIVGDFENADVVKPQDLCDWYRGLLANHYGQQAAWDWIREDWDWLDKTVGGDMEFAKFITVTAGVFHTPERLKEFKEFFEPKINVPLLSREIKMDVKVIESKVNLIEAEKDAVNDAVAKAID
notes: His-tagged recombinant full-length PepN (monomer)
Consider B2, for which the Michaelis constant (Km) in “purified protein [6]” was 140 µM; in “purified protein [7]”, 170 µM; in “purified protein [8]”, 430 µM; in the data set “purified protein [9]”, 140 µM; in “purified protein [10]”, 150 µM. Also, the maximal velocity (Vmax) was 51100 µM/min in “purified protein [7]”, 46100 µM/min in “purified protein [8]”, 93100 µM/min in “purified protein [9]” and 15200 µM/min in “purified protein [10]”.
